Data as given in patent US20090175866A1, “TREATMENT OF B-CELL MALIGNANCIES” (priority 2004, published 2009).

Assays:
[1] = system: ERK1/2 phosphorylation; experiment: FGF-induced ERK phosphorylation in primary myeloma cells (flow cytometry); assay type: cell-based, human; settings: 5 μg/ml, 2 h pre-incubation
Procedure: FIGS. 6 A-B are flow cytometry charts of human primary myeloma cells treated with anti-FGFR antibody PRO-001. A: Freshly isolated BMSCs were stained with PRO-001 (black line) or control antibody (grey line) and then stained with PE-conjugated anti-human secondary antibody. B: Primary myeloma cells were incubated in the absence (filled) or presence of FGF (light line) or pre-incubated with 5 μg/ml PRO-001 (dark line) for 2 h and then stimulated with FGF. ERK1/2 phosphorylation was assessed by flow cytometry analysis.
Determination of ERK1/2 phosphorylation by flow cytometry has been described previously (Chow S, et al., Cytometry 2001; 46:72-78). Cells were serum-starved overnight and then stimulated with 30 ng/ml of aFGF and 10 μg/ml heparin for 10 minutes at 37° C. The cells were immediately fixed by adding 10% formaldehyde directly into the culture medium to obtain a final concentration of 2%. Cells were incubated in fixative for 10 min at 37° C. then on ice for an additional 2 minutes. The cells were permeabilized by adding ice-cold methanol (to a final concentration of 90%) while vortexing and incubated on ice for 30 minutes. […] Flow cytometry was performed on a FACSCaliber® flow cytometer (BD Biosciences, San Jose, Calif.) and analyzed using Cellquest® software (Becton Dickinson). […]

[2] = molecular target: T1, WT FGFR3 (Homo sapiens, UniProt P22607); experiment: Flow cytometry binding of PRO-001 Fab to B9-FGFR3^WT cells, with or without FGF
T1 construct: expressed in transfected cells; host or cells: B9 cells
T1 sequence (P22607 23-806): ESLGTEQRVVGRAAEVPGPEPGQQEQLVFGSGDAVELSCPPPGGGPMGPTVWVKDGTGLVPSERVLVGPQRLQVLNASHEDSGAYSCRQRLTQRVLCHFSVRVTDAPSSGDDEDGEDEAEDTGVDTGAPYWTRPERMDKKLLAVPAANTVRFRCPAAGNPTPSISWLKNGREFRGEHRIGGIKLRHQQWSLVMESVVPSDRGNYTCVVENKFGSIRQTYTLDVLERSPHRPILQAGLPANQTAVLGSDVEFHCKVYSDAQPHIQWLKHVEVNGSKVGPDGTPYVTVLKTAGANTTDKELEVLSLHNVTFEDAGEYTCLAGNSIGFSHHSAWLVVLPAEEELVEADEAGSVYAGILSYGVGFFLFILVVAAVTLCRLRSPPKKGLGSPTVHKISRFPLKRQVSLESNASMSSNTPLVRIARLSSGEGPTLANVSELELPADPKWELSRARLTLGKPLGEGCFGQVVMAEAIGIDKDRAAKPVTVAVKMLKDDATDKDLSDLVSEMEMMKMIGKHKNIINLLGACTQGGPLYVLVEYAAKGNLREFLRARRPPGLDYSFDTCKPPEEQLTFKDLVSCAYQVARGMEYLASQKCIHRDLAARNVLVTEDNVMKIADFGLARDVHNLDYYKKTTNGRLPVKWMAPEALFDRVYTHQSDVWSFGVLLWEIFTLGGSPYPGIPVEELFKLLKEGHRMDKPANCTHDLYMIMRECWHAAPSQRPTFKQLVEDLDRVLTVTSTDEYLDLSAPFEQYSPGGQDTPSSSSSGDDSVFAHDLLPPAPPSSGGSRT
Source text: FIG. 1A is a flow cytometry chart showing B9-FGFR WT (wild type) cells fluorescently labeled with PRO 001 followed by a PE-conjugated anti-human secondary antibody. The filled histogram indicates parental B9 cells (lacking FGFR3 expression); the dotted light line, B9-FGFR WT without aFGF; the solid dark line, B9-WT in the presence of aFGF. The Y axis represents counts indicating the amount of cells. The X axis represents fluorescence intensity.
Cells (5×10^5) were washed in cold phosphate-buffered saline (PBS) and then incubated for 30 minutes with one of the following: PRO-001 Fab or a human Fab control antibody, rabbit anti-FGFR3 (100) or rabbit preimmune serum in PBS. The cells were then stained with PE-conjugated goat antihuman F(ab′)2 secondary antibody or goat anti-rabbit IgG-PE for 30 minutes on ice. Flow cytometry was performed on a FACSCaliber flow cytometer (BD Biosciences, San Jose, Calif.) and analyzed using Cellquest software (Becton Dickinson). To assess the ability of FGF ligand to compete for binding, cells were incubated in the presence or absence of 30 ng/ml FGF and 5 μg/ml heparin for 30 minutes and then stained with PRO-001 Fab as describe above.
The human anti-FGFR3 Fab PRO-001 was isolated from the Hu-CAL®-Fab-1 human combinatorial library using a differential whole cell panning approach (Rauchenberger R, et al. J Biol. Chem. 2003; 278:38194-205). […]

[3] = system: BMSC; experiment: Direct toxicity on bone marrow stroma cells (annexin V); assay type: cell-based, human; settings: 5 μg/ml, 72 hours (FIG. 5 legend)
Procedure: FIG. 5 is a graph showing apoptosis of UTMC2 cells in response to treatment with PRO-001 in the presence of BMSCs (stroma). BMSCs alone (stroma) or BMSCs together with UTMC2 cells (stroma/UTMC2) were cultured with control antibody or 5 μg/ml PRO-001 for 72 hours and apoptosis was assessed by means of a flow cytometry assay of annexin V binding and propidium iodide exclusion. Values represent means of quadruplicate cultures ±SD.
Non-transformed rat chondrocyte cell line expressing PGFR3 in an inducible manner (RCJ-FGFR3) has been described previously (Rauchenberger R. et al. J. Biol. Chem. 2003; 278:38194-205). Cells were maintained in α-Minimum Essential Media supplemented with 15% fetal calf serum (FCS), 2 mM L-Glutamine, 100 U/ml penicillin, 100 μg/ml streptomycin, 600 μg/ml G418 (Gibco BRL, Ontario, Canada), 2 μg/ml Tetracyclin (Sigma, Ontario, Canada), and 50 μg/ml HygromycinB (Gibco BRL). FGFR3 expression was induced by removal of tetracyclin and serum starvation. […]
For studies of apoptosis, cells were seeded at an initial density of 2.5×10^5/ml in 6 well plates coated with BMSCs and supplemented with control (vehicle or antibody) or 5 μg/ml PRO-001 and cultured for 48 h. Apoptosis was determined by Annexin V staining (Boehringer Mannheim, Indianapolis, Ind.) and analyzed by flow cytometry. […]

B1: PRO-001: human anti-FGFR3 Fab from HuCAL library; VH-CDR3 SEQ ID NO:1, VL-CDR3 SEQ ID NO:10; VH SEQ ID NO:19, VL SEQ ID NO:28 (antibody, V domains shown)
VH: QVQLQQSGPGLVKPSQTLSLTCAISGDSVSSNSAAWNWIRQSPGRGLEWLGRTYYRSKWYNDYAVSVKSRITINPDTSKNQFSLQLNSVTPEDTAVYYCARSYYPDFDYWGQGTLVTVSS
VL: DIELTQPPSVSVAPGQTARISCSGDALGDKYASWYQQKPGQAPVLVIYDDSDRPSGIPERFSGSNSGNTATLTISGTQAEDEADYYCQSYDGPDLWVFGGGTKLTVLGQ
[1]
  FGF-induced ERK phosphorylation in primary myeloma cells: blocked FGF-induced ERK phosphorylation
[2]; 30 ng/ml FGF and 5 μg/ml heparin
  Binding to B9-FGFR3^WT cells on addition of FGF: can be reduced by addition of FGF
[2]; PRO-001 Fab, B9-FGFR3^WT cells
  Binding to WT FGFR3 (FACS): binds to WT FGFR3
[3]
  Direct toxicity on the BMSC: no direct toxicity
